Source: the RNAGym collection of RNA variant scans (doi:10.7554/elife.80360)

B1: CPEB3 Ribozyme (parent)
chain: GGGGGCCACAGCAGAAGCGUUCACGUCGCGGCCCCUGUCAGAUUCUGGUGAAUCUGCGAAUUCUGCUGU

Variants of: B1
Experiment: self-cleavage, relative activity (ratio to wild type); higher = more cleavage; co-transcriptional

Variant	self-cleavage
G5A C18U	0.483
G5A C18G	0.0833
G5A U44C	0.858
G5A U44A	0.655
G5A U44G	0.631
G5A G31U	0.221
G5A G31C	0.118
G5A G31A	0.158
G4U G31U	0.126
G4U G31C	0.0584
G5A C7G	0.0847
G5A C7A	0.134
G5A C7U	0.501
G5C U43G	0.219
G5C U43C	0.173
G5A C63U	0.915
G5A C63A	0.427
G5A G58A	0.723
G5A G58C	0.758
G5A G58U	0.906
G4U G41C	0.126
G4U G25U	0.0695
G4U G25A	0.101
G4U G25C	0.116

Variant	self-cleavage
G5A C45A	0.832
G5A C45G	0.823
G5A C45U	0.913
G5A G17U	0.152
G4U U53A	0.412
G4U U53G	0.226
G4U U53C	0.323
G5A C32A	0.847
G5A U55A	0.69
G5A U55C	0.403
G4U U26G	0.3
G5A A13C	0.637
G5A C54A	0.546
G5A C54G	0.394
G5A C54U	0.893
G5C G65A	0.158
G5C G65C	0.106
G5C G65U	0.0855
G5A G14U	0.365
G5A G14C	0.159
G5A G14A	0.325
G5A G28A	0.1
G5A G28U	0.144
G5A G28C	0.124

Variant	self-cleavage
G5A G48A	0.918
G4U U44G	0.384
G4U U44C	0.552
G5C U61A	0.193
G5C U61G	0.153
G5C U61C	0.13
G5C G41U	0.186
G5C G41A	0.194
G5C G41C	0.188
G5A C12G	0.488
G5A C12A	0.532
G5C C34U	0.3
G5C C34A	0.268
G5C C34G	0.22
G5C C22U	0.0752
G5C C22G	0.0735
G5C C39A	0.134
G5C C39U	0.184
G5C C39G	0.199
G5C G37C	0.103
G5C G37U	0.179
G5C G37A	0.119
G5A U46C	0.945
G5A A60G	0.515

Variant	self-cleavage
G5A A60U	0.247
G5A A60C	0.251
G5C U21C	0.149
G5C U21G	0.114
G5C U21A	0.134
G4U U36A	0.122
G4U U36C	0.651
G4U U36G	0.492
G4U U67C	0.946
G4U U67A	0.9
G5C G48A	0.217
G5A G68U	0.948
G5A G68C	0.947
G5A G68A	0.976
G5C U44C	0.179
G5C A42U	0.265
G5C A42C	0.207
G5C U46A	0.265
G5C U46C	0.267
G4U C66U	0.771
G4U C66A	0.468
G5C A59G	0.229
G5C G28C	0.0894
G5C G28U	0.0856

Variant	self-cleavage
G5A C9A	1.01
G5A C35G	0.134
G5A C35U	0.365
G5A C35A	0.203
G4U G14U	0.241
G4U G14C	0.205
G5A G37C	0.171
G5A G37U	0.165
G5A A8C	0.953
G5A A8G	0.725
G5A A8U	0.894
G5C C54G	0.143
G5C C54U	0.219
G4U U62G	0.349
G4U U62C	0.369
G4U G11A	0.571
G4U G11U	0.492
G4U G11C	0.228
G5C G30C	0.124
G5C G30A	0.177
G5C G30U	0.0983
G5A U38G	0.129
G5A U38C	0.749
G5A U38A	0.816

Variant	self-cleavage
G5C C6G	0.0983
G5C C9G	0.487
G5C C9U	0.412
G5C C9A	0.386
G5A C34G	0.155
G5C C7G	0.293
G5C C7A	0.684
G4U U20A	0.121
G4U U20C	0.14
G4U U20G	0.0683
G4U U64G	0.589
G4U U64C	0.602
G4U U64A	0.535
G5A U20C	0.109
G5A U20G	0.111
G4U U38A	0.73
G4U U38C	0.525
G4U U46G	0.803
G4U U46C	0.751
G4U U46A	0.746
G4U U61C	0.174
G5A A23U	0.931
G5C G56A	0.158
G5A G11U	0.778

Variant	self-cleavage
G5A G11C	0.578
G5A A15U	0.355
G5A A15C	0.263
G5A U53G	0.335
G5A C6A	0.103
G5A C6U	0.189
G5A G47C	0.914
G5A G47A	0.964
G5C U55A	0.192
G5C G31U	0.143
G5C C35A	0.0866
G5C A51C	0.152
G5C A51U	0.269
G5C A51G	0.228
G5C G11U	0.108
G5C C66U	0.151
G5A U43G	0.578
G5A U43C	0.77
G5A U43A	0.721
G5C U20G	0.0813
G4U U43G	0.389
G4U U43A	0.455
G5A G50C	0.902
